Measurements: the Human Domainome abundance scans (Beltran et al. 2025)

B1: Zinc finger homeobox protein 4, residues 2183 to 2238; numbered along this chain, Q86UP3 (parent)
chain: SSRTRFTDYQLRVLQDFFDTNAYPKDDEIEQLSTVLNLPTRVIVVWFQNARQKARK

Variants of: B1
Assay: abundance fitness (aPCA) (normalised: wild type 0, dead -1); higher = more abundant; growth selection in yeast, the domain comes from the species named
Conditions: Homo sapiens

Abundance fitness, by site and new letter:
D27: F 0.019 | G 0.162 | Y -0.171 | T -0.256 | H 0.048 | A -0.378 | L -0.004 | M -0.012 | N 0.001 | Q 0.08 | K -0.029 | S -0.009 | R -0.038 | V -0.375
E28: W -0.596 | G -0.207 | N -0.287 | T -0.069 | I -0.741 | Q 0.061 | R -0.25 | D 0.031 | C -0.18 | M -0.507 | Y -0.341 | K -0.011 | A -0.036 | S -0.18 | V -0.34 | H -0.188 | F -0.448
V35: E -0.153 | L -0.004 | N -0.427 | D -0.222 | M 0.058 | Q 0.004 | S 0.03 | Y -0.506 | F -0.206 | W -0.202 | H -0.006 | K 0.157 | G 0.043 | R 0.06 | T 0.108 | C 0.02 | I -0.207 | P -0.297
P24: D -0.832 | Y -0.746 | L -0.419 | R -0.657 | G -0.813 | I -0.292 | V -0.501 | E -0.823 | Q -0.703 | K -0.817 | H -0.703 | M -0.596 | W -0.593 | A -0.272 | N -0.945 | C -0.567 | F -0.792 | T -0.698
Q31: M -0.212 | K 0.037 | G -0.098 | V -0.206 | F -0.028 | A -0.188 | C -0.221 | N -0.444 | S -0.042 | H -0.263 | Y -0.085 | I -0.316 | W -0.184 | P -0.343 | T -0.252 | L -0.278 | R -0.023
L38: V -0.051 | I -0.061 | R -0.416 | P -0.913 | T -0.007 | G -1.04 | A -0.019 | F -0.277 | C 0.018 | H -0.305 | S -0.275 | M -0.067 | D -0.709 | Y -0.431 | Q -0.131 | W -0.735 | E -0.366 | K -0.357 | N -0.914
S33: F -0.897 | C -0.357 | Y -0.749 | T -0.005 | E -0.209 | R -0.486 | I -1.04 | N -0.257 | Q -0.134 | V -0.595 | L -0.946 | H -0.003 | P -0.675 | M -0.35 | G -0.23 | K -0.82 | D -0.884
I29: D -0.876 | T -0.256 | G -0.88 | Q -0.447 | Y 0.004 | C -0.015 | S -0.702 | K -0.576 | V -0.174 | R -0.692 | E -0.614 | L -0.023 | M -0.03 | H -0.633 | F -0.152 | A -0.266 | W -0.352 | P -1.23 | N -0.809
R41: T 0.06 | K 0.033 | Q 0 | P -0.143 | M -0.081 | N 0.103 | L -0.059 | H -0.196 | A 0.069 | E -0.181 | S 0.083 | D 0.204 | C -0.002
N37: D -0.061 | K 0.042 | V -0.056 | T 0.111 | Y -0.595 | I -0.172 | M -0.202 | C -0.358 | P -0.847 | F -0.308 | A -0.02 | G -0.126 | Q -0.137 | S -0.109 | R -0.12
